The experiment has as its target T1, GST-PBD46 (peptide derivative of p21-activated serine/threonine kinase, PAK Binding Domain 46).
T1 chain: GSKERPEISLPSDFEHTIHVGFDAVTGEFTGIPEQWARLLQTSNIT
The experiment can be described thus: pull-down.

B1: Cdc42 wild type (natural protein)
chain: not shown
For the molecule B1, the “ΔI (pull-down band intensity, wild type:PBD46 relative to T35A:PBD46)” value is 4.2 ± 0.59.

These data come from publication PMC3134622 (Biochemistry, 2011).
